Molecular target: Cas9wt (SpCas9) (Streptococcus pyogenes, UniProt Q99ZW2 1-1368)
Test: single-molecule magnetic tweezers

Chain of Cas9wt (SpCas9) (Q99ZW2 whole entry): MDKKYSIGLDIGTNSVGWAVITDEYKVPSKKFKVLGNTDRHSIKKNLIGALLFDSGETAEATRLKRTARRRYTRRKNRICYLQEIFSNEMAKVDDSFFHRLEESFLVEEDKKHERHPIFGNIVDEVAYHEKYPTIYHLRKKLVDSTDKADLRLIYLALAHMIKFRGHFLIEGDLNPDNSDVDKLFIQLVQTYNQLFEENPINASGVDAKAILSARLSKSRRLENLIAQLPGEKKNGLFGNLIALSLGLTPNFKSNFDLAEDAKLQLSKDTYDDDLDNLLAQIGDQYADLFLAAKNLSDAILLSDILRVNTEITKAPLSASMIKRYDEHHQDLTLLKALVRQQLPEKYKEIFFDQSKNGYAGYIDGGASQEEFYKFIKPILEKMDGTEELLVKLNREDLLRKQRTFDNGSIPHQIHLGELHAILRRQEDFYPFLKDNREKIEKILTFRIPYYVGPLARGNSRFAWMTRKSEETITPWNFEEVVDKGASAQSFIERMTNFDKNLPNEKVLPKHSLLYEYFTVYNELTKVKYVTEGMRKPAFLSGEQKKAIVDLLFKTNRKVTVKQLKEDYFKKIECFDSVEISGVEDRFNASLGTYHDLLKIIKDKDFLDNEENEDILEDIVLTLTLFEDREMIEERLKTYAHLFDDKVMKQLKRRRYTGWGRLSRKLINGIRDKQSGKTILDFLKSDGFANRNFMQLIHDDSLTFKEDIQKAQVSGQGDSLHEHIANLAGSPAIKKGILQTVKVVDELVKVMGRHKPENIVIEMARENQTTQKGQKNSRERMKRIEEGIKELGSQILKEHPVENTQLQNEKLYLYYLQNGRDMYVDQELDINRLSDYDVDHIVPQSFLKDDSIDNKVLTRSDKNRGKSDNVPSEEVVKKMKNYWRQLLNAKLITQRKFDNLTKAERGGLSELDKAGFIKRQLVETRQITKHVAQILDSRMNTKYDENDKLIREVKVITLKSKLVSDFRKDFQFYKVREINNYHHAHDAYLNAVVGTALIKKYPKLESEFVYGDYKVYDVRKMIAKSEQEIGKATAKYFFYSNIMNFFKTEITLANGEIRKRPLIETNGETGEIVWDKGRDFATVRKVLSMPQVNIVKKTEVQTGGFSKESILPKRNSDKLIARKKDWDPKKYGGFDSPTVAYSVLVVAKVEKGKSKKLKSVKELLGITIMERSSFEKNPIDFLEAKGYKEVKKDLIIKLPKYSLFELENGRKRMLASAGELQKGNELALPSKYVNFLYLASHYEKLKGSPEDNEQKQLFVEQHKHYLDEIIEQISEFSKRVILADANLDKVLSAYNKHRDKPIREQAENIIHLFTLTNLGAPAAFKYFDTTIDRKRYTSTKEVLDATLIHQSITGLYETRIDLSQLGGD

B1: sgRNA MT + 2.7 kb DNA with FM protospacer (mixed)
RNA: GAGCGAUACACAUGAGACGCGUUUUAGAGCUAGAAAUAGCAAGUUAAAAUAAGGCUAGUCCGUUAUCAACUUGAAAAAGUGGCACCGAGUCGGUGCUUUUU
  binding result: binds
